Measured values from patent US20160271292A1 (GEORGIA TECH RESEARCH, published 2016).

How the values were obtained:
[1] = biological target: fibrin (polymerized from purified human fibrinogen with thrombin) (human) (UniProt P02671); assay: SPR, sdFv flowed over thin fibrin layer, Langmuir 1:1 fit
[2] = biological target: T1, BSA (UniProt P02769 25-607); assay: SPR, scFv/sdFv flowed over a BSA surface
T1 construct: Control surface in SPR; also called BSA surface
T1 sequence (P02769 25-607 limits assumed): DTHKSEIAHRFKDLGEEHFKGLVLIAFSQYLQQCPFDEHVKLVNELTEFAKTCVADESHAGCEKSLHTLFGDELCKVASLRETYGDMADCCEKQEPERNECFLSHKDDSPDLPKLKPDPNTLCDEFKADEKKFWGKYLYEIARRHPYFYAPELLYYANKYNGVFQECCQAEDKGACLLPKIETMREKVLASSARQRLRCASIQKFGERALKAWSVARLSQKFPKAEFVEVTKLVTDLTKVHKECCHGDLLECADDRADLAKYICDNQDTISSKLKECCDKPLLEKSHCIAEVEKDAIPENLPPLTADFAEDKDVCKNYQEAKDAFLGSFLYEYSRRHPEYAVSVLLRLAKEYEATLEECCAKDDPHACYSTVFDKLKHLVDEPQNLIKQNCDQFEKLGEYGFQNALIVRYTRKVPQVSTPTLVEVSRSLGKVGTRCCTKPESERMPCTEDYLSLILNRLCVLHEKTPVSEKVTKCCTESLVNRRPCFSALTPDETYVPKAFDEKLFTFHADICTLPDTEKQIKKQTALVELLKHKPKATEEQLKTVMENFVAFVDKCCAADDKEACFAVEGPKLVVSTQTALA

B1: H6 fibrin-specific single domain variable fragment antibody (sdFv) (VHH)
VHH: QVQLLESGGGLVQPGGSLRLSCAASGDRFTHNDMGWVRQAPGKGLEWVSTIPTTDGSTYYADSVKGRFTISRDNSKSTLYLQMNSLRAEDTAVYYCATGYMWKAPAYVKYWGQGTLVTVSS
notes: Human-derived single domain antibody with only the VH of human IgG, from a phagemid library; Produced as soluble sdFv in E. coli HB2151 and purified on protein A; also called clone H6; nanobody
B1 was tested, and the Kd [1] was 199 nM and the binding result [2] was “no binding (tested: not printed)”.
